{"source": "the nanobody polyreactivity screen of Harvey et al. (2022)"}
{"experiment": "yeast display, Sf9 membrane polyspecificity reagent, FACS + sequencing; frameworks hold sequencing errors", "method_in_brief": "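A nanobody's polyreactivity label depends on the gate it was sorted from. Yeast display cells were stained with 10% biotinylated, detergent-solubilized Sf9 membrane reagent for 1 hour at 4 °C, enriched on streptavidin microbeads and sorted by FACS. The low and high (top ~1%) gates were set on anti-HA fluorescence for expression and streptavidin fluorescence for reagent binding.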"}
{"sequence": "QVQLVESGGGLVQAGGSLRLSCAASGFIFGPYAMGWYRQAPGKERELVADITIDSGSTYYADSVKGRFTISRDNAKNTVYLQMNSLKPEDTAVYYCATDYWNEYEYWGQGTQVTVSS", "polyreactivity (PSR sort gate)": "low polyreactivity"}
{"sequence": "QVQLVESGGGLVQAGGSLRLSCAASGLTFKYYAMGWYRQAPGKERELVAAITSTGGRTYYADSVKGRFTISRDNAKNTVYLQMNSLKPEDTAVYYCAAYYVGSSKYDSWGQGTQVTVSS", "polyreactivity (PSR sort gate)": "low polyreactivity"}
{"sequence": "QVQLVESGGRLVQAGGSLRLSCAASGSTFNRYAMGWYRQAPGKERELVAAISRGGSTTYADSVKGRFTISRDNAKHTVYLQMYSLKPEDTAVYYCAALYYSPRYWYDYWGLGTQVTVSS", "polyreactivity (PSR sort gate)": "high polyreactivity"}
{"sequence": "QFQLVESGGGLVQAGGSLRLSCAASGFTFVSNDMGWYRQAPGKVRELVAAISQGGGSTYYADSVKGRFTISRDNAKNTVYLQMNSLKPEDNAVYYCDAEDVYFGYDYSGQGTQVTVSS", "polyreactivity (PSR sort gate)": "low polyreactivity"}
{"sequence": "QVQLVESGGVLVQAGGSLRLSCAASGSTSYNNAMGWYREAPGKEREFVAAISSNGDRTYYADSVKGRFTISRDNPKNTVYLLMNSLKPEDTAVFYCAVRSWYNYEWGQGTQVTVSS", "polyreactivity (PSR sort gate)": "high polyreactivity"}
{"sequence": "QVQLVESGGGLVQAGGSLRLSCAASGSIFLGYAMGWYRQAPGKERELVATITSSGSTSYADSVKGRFTISRDNAKNTVYLQMKSLKPEDTAVYFCNTDLFQYGVNHYEYWGQGTQVTVSS", "polyreactivity (PSR sort gate)": "high polyreactivity"}
{"sequence": "QVQLVESGGGLVQAGGSLRLRCAASGFTFTAYAMGWYRQAPGKERELVAAITWRDGITYYADSVKGRFTISRDNAKNTVYLQMNSLKPEDTADYYCAASWSTEYYWGQGTQVTVSS", "polyreactivity (PSR sort gate)": "high polyreactivity"}
{"sequence": "QVQLVESGGGLVQAGGSLRLSCAASGSTFAKYAMGWYRQAPGKERELVAAISSSGTSTYYADSVKGRFTISRDNAKNTVYLQMNSLKPEDTAVYYCAASYRNRYIAFYYWGQGTQVTVSS", "polyreactivity (PSR sort gate)": "low polyreactivity"}
{"sequence": "QVQIVESGGGLVQAGGSLRLSCAASGSTSWSNAMGWYRQAPRKERELVAAITTGASTYYADSVKGRFTISRDNSKNTVYLQMNSLKLEDTAVYYCAADPWVLWSYYYWGQGTQVTVSS", "polyreactivity (PSR sort gate)": "low polyreactivity"}
{"sequence": "QVQLVESGGGLVQAGGSLRLSCAASGRISPKNAMGWYRQAPGKERELVATIRKIGGRTYYADSVKGRFTISRDNAKNTVYLQMNSLKPEDTAVYYCATDFAQSYYPDRFDYWGQGTQVTVSS", "polyreactivity (PSR sort gate)": "low polyreactivity"}
{"sequence": "QVQLVESGGGLVQAGGSLRLSCAASGFIFADYAMGWYRQAPGKERELVAAITRSGGRTYYADSVKGRFTISRDNAKNTVYLQMNSLKPEDTAVYYCAAVGPGRRRDYWGQGTQVTVSS", "polyreactivity (PSR sort gate)": "high polyreactivity"}
{"sequence": "QVQLVESGGGLVQAGGSLRLTCAASGFIFYKYAMGWYRQAPGKERELVAAISRGGGSTYYADSVKGRFTISRDNAKNTVYLQMNSLKPEETAVYYCAAQAFIVRPSYVPRHNYWGQGTQVTVSS", "polyreactivity (PSR sort gate)": "high polyreactivity"}
{"sequence": "QVQLVESGGGLVQAGGSLRLSCAASGSTFGWNAMGRYRQAPGKERELVAAISSSGGSTNYADSVKGRFTISRDNAKNTVYLQMTSLKPEDTAVYYCAKARRPGYGYGYWGQGTQLTVSS", "polyreactivity (PSR sort gate)": "low polyreactivity"}
{"sequence": "QVQLVESGGGLVQAGGSLRLSCAASGSIFHDNAKGWYRQAPGKERELVAAINRGGSTHYADSVKGRFTISRDNAKNTVYLQMNSLKPEDTAVYYCNTVGRGYDYDYWGQGTQVTVSS", "polyreactivity (PSR sort gate)": "low polyreactivity"}
{"sequence": "QVQLGESGGGIVQAGGSLRLSCAASGIIFYPYTMGWYRQAPGKERELVAAINSGGSTYYADSVKGRFTISRDNAKNTVYLQMNSLKPEDTAVYYCAAEEALDWYDDWIVSYDYWGQGTQVTVSS", "polyreactivity (PSR sort gate)": "low polyreactivity"}
{"sequence": "QDQLVESGGGLVQAGGSLRLSCAASGSTFYTYAMGWYRQEPGKERELVAAISYRGGSSYYAVSVKGRFTISRDNAKYTVYLQMNSLKPEDTAVYYCAAKVSRAGDFWGQGTQVTVSS", "polyreactivity (PSR sort gate)": "low polyreactivity"}
{"sequence": "QVQLVESGGGLVQAGGSLRLSCAASGSIFYVNGMGWSRQAPGKERELVARITLSGTSTYYADSVKGRFTISRDNAKNTVYLQMNSLKPEDTAVYYCAAPYFTYGQDDDDYWGQGTQVTVSS", "polyreactivity (PSR sort gate)": "low polyreactivity"}
{"sequence": "QVQLVESGGGLVQAGGSLRLSCAASGRTFLHYAMGWYRPAPGKERELVAAMSWSGGSTNYADSVKGRFTISRDNAKNTVYLQMNSLKPEDTAVYYCAADFYWVIYSTVEYGYWGQGTQVTVSS", "polyreactivity (PSR sort gate)": "low polyreactivity"}
{"sequence": "QVQLVESGGGLVQAGGSLRLSCAASGFTFARNAMGWYRQAPGKERELVAAINRSGGSTYYADSVKGRFTISRDNAKNTVYLQMNRLKPEDTAVYYCNKPRLAQQGYDYWGQGNQVTVSS", "polyreactivity (PSR sort gate)": "high polyreactivity"}
{"sequence": "QVQLVESGGGLVQAGGSLRLSCAASGFTFTYYAMGWYRQAPGKERELVAAISRNGGDTYYADSGKGRFTISRDNAKNTVYLQMNSLKPEDSAVYYCNARTPTDSTHFDYWGQGTQVTVSS", "polyreactivity (PSR sort gate)": "low polyreactivity"}
{"sequence": "QVQLVESGGGLVQAGGSLRLSCAASGIIFRFNGMGWYRQAPGKEREFVAAISGGAGSTYYADSVKGRFTISRDNAKNTVYLQMNSLKPEDTAVYYCAAVWRTRWASGYYWGQGTQVTVSS", "polyreactivity (PSR sort gate)": "high polyreactivity"}
{"sequence": "QVQLVQSGGGIVQAGGSLRLSCAAYGITFGRNNMGWDRQAPGKERELVAALDSGGNTYADSVKGRFTISRDNAKQTVYVQMNSLKPEDTAVYDCAVDGGEFSSYGYWGQGTQVTVSS", "polyreactivity (PSR sort gate)": "low polyreactivity"}
{"sequence": "QVQLVESGGGLVQAGGSLRLSCAASGSIFDYNAMGWNRQAPGKETELVAAITSTDSTYADSVKGRFTISRDNAKNTVYLQMNSLKPEDTAVYYCAAEDVIYYLTGQWREYDYWGQGTQVNVSS", "polyreactivity (PSR sort gate)": "low polyreactivity"}
{"sequence": "QVQLVESGGGLVQEGGSLRLSCAASGSTFLKYDMGWYRQAPGNERELVAAISWDGGSTYYADSVKGRFTISRDNAKNTVYLQMNSLKPEDTAVYYCNADYDVYLTICYYYGEFDYWGQGTQVTVSS", "polyreactivity (PSR sort gate)": "low polyreactivity"}
{"sequence": "QVQLVESGGGLVQAGGSLRLSCAASGITFKGYTMGWYRQAPGTERELVATISRGGRTYADSVKGRFTISRDNAKNTVYLQMNSLKPEDTAVYYCAADKYWAQNDYWGQGTQVTVSS", "polyreactivity (PSR sort gate)": "low polyreactivity"}
{"sequence": "QDQLGDSGGGLLQAGGSLRLSCAASGQIYFDNMGWYRQAPGKEREMVAAISSSGASTSYADSVKGRFTISRDNAKNTVYLQIYSLNPEDTAVYYCAADSYPAYLGFVGFDYWGQGTQVTVSS", "polyreactivity (PSR sort gate)": "low polyreactivity"}
{"sequence": "QVQHVESGGGLVQAGGSLRLSCAASGFTFGYYAMGWYRQAPGKESELVAAIRSSGGSTYYADSVKGRFTISRDYAKNTDYLQMNSLKPEDSAVYYCAVLYGYLSSSRYGYDSWGKGTQVTVSS", "polyreactivity (PSR sort gate)": "high polyreactivity"}
{"sequence": "QVQLVESGGGLVQAGGSLRLSCAASGIIFDYYAMGWYRQAPGKVREFVATITSGGSTTYADSVKGRFTISRDNAKNTVYIEMNSLKPEDTAVYYCAARTYWFPDIYPGLGRDYWGQGTQVTVSS", "polyreactivity (PSR sort gate)": "low polyreactivity"}
{"sequence": "QVQLVESGGGLVQAGGSLRLSCAASGFTFSYYAMGWYRQAPGKERELVAAISSGGSTYYADSVKGRFTISRDNAKNTVYLQMHRLKPEDTAVYYCNVLNYSSRHYLFSYDYWGQGTQVTVSS", "polyreactivity (PSR sort gate)": "high polyreactivity"}
{"sequence": "QVQLVESGGGLVQAGGSLRLSCAASGTFSQYAMGWYRQAPGKERELVAAISQGGGSTYYADSVKGRFTISRDNAKNTVYLQMNSLKPEDTAVYYCARSRSYWGIVYGRYDYWGQGTQVTVSS", "polyreactivity (PSR sort gate)": "high polyreactivity"}
{"sequence": "QVQLEESRGGLVQAGGSLRLSCAASGSTFVINDMGWYRQAPGKETELVAAISKSGGRTYYADSVKGRFTISRDNATNTVYLQMNSLKPEDTAVYYCAAVSQRTRYGYWGQGTQVTVSS", "polyreactivity (PSR sort gate)": "high polyreactivity"}
{"sequence": "QVQLQEGGGGLVQAGGSLRLSCAASGYIFNGDWKGWYRQAPGKERELVATINYGATTNYADSVKGRFTISRDNAKNTVYLQMNSLKPEDTAVYYCAVGGHGAQLYVYWGQGTQVTVSN", "polyreactivity (PSR sort gate)": "high polyreactivity"}
{"sequence": "QVQLVESGGGLVQAGGSLRLSCAASGNTFYWNAMGWYRQAAGKERELVAAISTTGVSTYYADSVKGRFTISRDNAKNTVYLQMNSLKPEDTAVYYCATVSYYDRYDYDYWGQGTQVTVSS", "polyreactivity (PSR sort gate)": "low polyreactivity"}
{"sequence": "QVQLVESGGGLVQAGGSLRLSCAASGFTFPYYTMGWYRQAPGKERELVAAINRGGGSTYYADSVKGRFTISRDNAKNTVYLHMNSLKPEDTAVYYCACLRCLFPGRFDYWGQSTQVTVSS", "polyreactivity (PSR sort gate)": "high polyreactivity"}
{"sequence": "QVQRVESGGGLVQAGGSLPLSCAATGRTVRQNAMGWYGQAPGKVSELVAAISSSGTNTHYAVSVKGRFTISRDNANNTVYIVMNRLKPEDTAVYYCAADGWGARRKQYHDNGFWGTGTQVTVSS", "polyreactivity (PSR sort gate)": "high polyreactivity"}
{"sequence": "QVQLVESGGGLVQAGGSLRLSCAASGSYLRYYAMGWYRQAAGKERELVAAISRSVTNTYYADSVKGRFTISRDYAKNTVYLQMNSLKPEDTAVDYCARVQYVRNVQYRYGGWYTRYYWGQGTQVTVSS", "polyreactivity (PSR sort gate)": "high polyreactivity"}
{"sequence": "QVQLVESGGGLVQAGGSLRLSCAGSGSIFGLYAMGWYRQEPGKERELVAAINQSGGSTSYADSVKGRFTISRDNAKNTVYFQMNSLKPEDTAVYYCNRVRLNTEGFDYWGQGTQVTVSS", "polyreactivity (PSR sort gate)": "low polyreactivity"}
{"sequence": "QVQLVESGGGLVQAGGSLRLSCAASGSTSYVYAMGWYRQAPGKERELVAAISGSGGRTYYADSVKGRFTISRDNAKNTVYLQMNSLKPEDTAVYYCNALPRPSYPFDYWGQGTQVTVSS", "polyreactivity (PSR sort gate)": "high polyreactivity"}
{"sequence": "QVQLVESGGGLVQAGGSLRLSCAASGFTFPRYAMGWYRQAPGKERELVAAITVGGGRTYYADSVKGRFTISRDNANNTVYLQMNSLKPEDTAVYYFAADSHASTYDYWGQGTQVTVSS", "polyreactivity (PSR sort gate)": "low polyreactivity"}
{"sequence": "HVQLVESGGGLVQEGGSLRLSCAASGSILALYAMGWDRQAPGKERELVAAISSGDSTSYADSVKGRFTISRDNAKNTVYLQMNSLKPEDTAVYYCAADRPIYPYPGKGFRYDYWGQGTQVTVSS", "polyreactivity (PSR sort gate)": "low polyreactivity"}
{"sequence": "QVQLVESGGVLVQAGGSLRLSCAASGSISFNAMGWYRQAPGKERELVAAITTSGGRTYYADSVKGRLTISRDNAKNTVSLQMNSLKPEDTAVYYCNVASKGRFARYAAEYVSWRQGTQVTVSS", "polyreactivity (PSR sort gate)": "high polyreactivity"}
{"sequence": "QVQLVESGGGLVQAGGSLRLSCAASGSIFELNAMGWYRQAPGKERELVAAIRWRTGRTYYADSVKGRFTISRDNAKNTVYLQMNSLKPEDTAVYYCAAPVRSGVRYTLDYWGQGTQVTVSS", "polyreactivity (PSR sort gate)": "high polyreactivity"}
{"sequence": "QVQLVESGGRLVQAGGSLRLSSAASGGTFYRNARGWYRQAPGKERELVASISRTGGSTYYADSVKGRFTISRDNAKNTVYLQMNSLKQVDTAVYYCAKKQPRYSYFDNDYWGQGTQVTVSS", "polyreactivity (PSR sort gate)": "high polyreactivity"}
